Data: publication PMC3268058 (2010)

Target: SRC SH3 domain (GST-SH3(SRC)) 83-139 (Gallus gallus, UniProt P00523)
Test: fluorescence polarization competition

Binder	Kd [µM]
RAARPLPPLPP [AGT(PP3) fusion]	7
VSLARRPLPPLPRL [AGT(PP2) fusion]	0.55
